In the supplement of paper PMC10126150:
± gives the standard deviation of the averaged measurements.

Tested on: ATP
Test: switch fluorescence ratio, 500 uM ATP over buffer (Cy3 cluster intensity, sum of 5 cycles each) (fold (ratio)); higher = stronger signal-on switching upon ATP binding; sequences stand for … in TCGTCGGCAGCGTCAGATGTGTATAAGAGACAGTTTTTTTTTTTTTTTTTTTTTTTTT…TC
Settings: aptamer strand: ATP DNA aptamer (quencher-CACCTGGGGGAGTATTGCGGAGGAAGG + anchor), 100 nM annealed; ATP concentration: 500 uM
Summary of the method: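 Cy3-labelled switching-strand clusters on a modified Illumina MiSeq flow-cell were annealed to 100 nM quencher-labelled ATP aptamer, imaged in selection buffer, then imaged after 15 min with 500 uM ATP at 22 °C. Five buffer/ATP cycles ran, with NaOH stripping and re-annealing between them. The fluorescence ratio is summed target-cycle over summed buffer-cycle Cy3 intensity per cluster, averaged per switch-domain sequence. Clusters outside 100-1000 RFU were excluded.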
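Note: ATP exposure 15 min at 22 °C before imaging.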

| Sequence | switch fluorescence ratio |
| --- | --- |
| TTGGACGGGA | 1.29 ± 0.47 |
| TTGGACTAAG | 0.99 ± 0.044 |
| TTGGAGCACT | 1.38 ± 0.075 |
| TTGGAGGAAC | 1.07 ± 0.12 |
| TTGGAGGTTC | 0.99 ± 0.063 |
| TTGGAGTGCT | 1.04 ± 0.045 |
| TTGGAGTGGG | 0.987 ± 0.051 |
| TTGGATAGGG | 1.04 ± 0.067 |
| TTGGATGAGC | 1.03 ± 0.07 |
| TTGGATGGGT | 0.959 ± 0.05 |
| TTGGATGTCT | 1.008 ± 0.0072 |
| TTGGATTGGG | 1.02 ± 0.064 |
| TTGGCACGAT | 1.012 ± 0.0011 |
| TTGGCAGTCG | 0.998 ± 0.02 |
| TTGGCAGTTA | 1.03 ± 0.061 |
| TTGGCATGGC | 1.04 ± 0.026 |
| TTGGCATGTC | 1.06 ± 0.041 |
| TTGGCATTTA | 1.034 ± 0.0054 |
| TTGGCCCCCA | 1.01 ± 0.017 |
| TTGGCCGCGA | 2.1 ± 0.066 |
| TTGGCCGTAC | 1.03 ± 0.029 |
| TTGGCGGGCG | 0.979 ± 0.034 |
| TTGGCGGGTG | 1.04 ± 0.041 |
| TTGGCTTGTC | 0.954 ± 0.019 |
| TTGGCTTTGG | 0.967 ± 0.0056 |

| Sequence | switch fluorescence ratio |
| --- | --- |
| TTGGGAAACT | 1.15 ± 0.24 |
| TTGGGAATCA | 0.988 ± 0.026 |
| TTGGGACGGA | 1.01 ± 0.034 |
| TTGGGACGGG | 0.994 ± 0.022 |
| TTGGGAGATG | 1.1 ± 0.13 |
| TTGGGAGCTT | 1.01 ± 0.048 |
| TTGGGAGGGA | 1 ± 0.038 |
| TTGGGAGGGG | 1.04 ± 0.083 |
| TTGGGAGTTG | 0.984 ± 0.037 |
| TTGGGATATG | 1.02 ± 0.065 |
| TTGGGCACGG | 0.991 ± 0.0052 |
| TTGGGCAGTA | 0.978 ± 0.057 |
| TTGGGCATCA | 1 ± 0.065 |
| TTGGGCCGCT | 0.974 ± 0.1 |
| TTGGGCCTGG | 0.9806 ± 0.0061 |
| TTGGGCTGGT | 0.962 ± 0.035 |
| TTGGGCTTGA | 1.01 ± 0.056 |
| TTGGGCTTGC | 1.04 ± 0.029 |
| TTGGGGAAAG | 0.986 ± 0.038 |
| TTGGGGACCC | 1.03 ± 0.035 |
| TTGGGGACTC | 1 ± 0.026 |
| TTGGGGAGAC | 1.07 ± 0.061 |
| TTGGGGATGT | 1 ± 0.031 |
| TTGGGGATTC | 0.991 ± 0.02 |
| TTGGGGATTG | 0.989 ± 0.021 |

| Sequence | switch fluorescence ratio |
| --- | --- |
| TTGGGGCACA | 1.01 ± 0.031 |
| TTGGGGCCAT | 0.999 ± 0.029 |
| TTGGGGCCCG | 1.01 ± 0.082 |
| TTGGGGCCTC | 1 ± 0.033 |
| TTGGGGGAAG | 0.981 ± 0.026 |
| TTGGGGGACA | 1.01 ± 0.014 |
| TTGGGGGCTT | 1 ± 0.039 |
| TTGGGGGGCC | 1.01 ± 0.031 |
| TTGGGGGGCG | 1.01 ± 0.073 |
| TTGGGGGTTA | 1.02 ± 0.019 |
| TTGGGGTAAC | 1.009 ± 0.01 |
| TTGGGGTGAA | 1.1 ± 0.14 |
| TTGGGGTGGG | 1.01 ± 0.046 |
| TTGGGGTGTG | 1.01 ± 0.017 |
| TTGGGGTTCG | 0.98 ± 0.029 |
| TTGGGTAAAT | 0.985 ± 0.031 |
| TTGGGTAAGC | 0.994 ± 0.066 |
| TTGGGTAAGG | 0.993 ± 0.029 |
| TTGGGTAATT | 0.998 ± 0.022 |
| TTGGGTACGA | 0.997 ± 0.0043 |
| TTGGGTCAGA | 0.981 ± 0.018 |
| TTGGGTGAAC | 1.002 ± 0.0088 |
| TTGGGTGAGG | 0.98 ± 0.028 |
| TTGGGTGTTT | 1.06 ± 0.035 |
| TTGGGTTCTC | 0.983 ± 0.037 |

| Sequence | switch fluorescence ratio |
| --- | --- |
| TTGGGTTTCG | 1.01 ± 0.042 |
| TTGGGTTTTC | 1.03 ± 0.065 |
| TTGGTAAGCG | 1.02 ± 0.051 |
| TTGGTAAGGG | 1.03 ± 0.011 |
| TTGGTACTGT | 1.02 ± 0.014 |
| TTGGTCCCGA | 1.001 ± 0.0014 |
| TTGGTCGCCC | 1.08 ± 0.17 |
| TTGGTCGTTT | 0.956 ± 0.038 |
| TTGGTCTGGT | 0.973 ± 0.024 |
| TTGGTGACGT | 1.03 ± 0.022 |
| TTGGTGGGTT | 0.994 ± 0.04 |
| TTGGTGGTCT | 1.05 ± 0.075 |
| TTGGTGGTGG | 1.01 ± 0.053 |
| TTGGTTCACC | 0.955 ± 0.029 |
| TTGGTTGAAA | 1.01 ± 0.013 |
| TTGGTTGAAG | 1.02 ± 0.013 |
| TTGGTTGACA | 0.9641 ± 0.0094 |
| TTGGTTGCAA | 0.983 ± 0.029 |
| TTGGTTGGCG | 0.992 ± 0.041 |
| TTGGTTGGGA | 1 ± 0.042 |
| TTGGTTGGGG | 1 ± 0.03 |
| TTGGTTGTTA | 1.01 ± 0.041 |
| TTGGTTTACC | 0.957 ± 0.011 |
| TTGGTTTATG | 0.993 ± 0.045 |
| TTGGTTTCAT | 1.009 ± 0.0094 |
